Reference: the supplement of paper PMC7125110
± gives the standard error. Fewer inactive variants are shown than the library holds.

B1: glmS ribozyme (parent)
chain: AUAAAAGCGCCAGAACUACAGAAAUGUAGUUGACGAGGAGGAGGUUUAUCGAAUUUUCGGCGGAUGCCUCCAAA

Experiments:
Details in all cases: with glucosamine-6-phosphate
glucosamine-6-phosphate [1] = variants of: B1; experiment: self-cleavage kobs at 40 uM GlcN6P; higher = faster cleavage; RNA array
Summary of the method: (§1)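 Barcoded ribozyme variants, transcribed in situ by E. coli RNA polymerase on sequenced MiSeq chips, were followed via a hybridised Cy3 probe at 37 °C. Glucosamine-6-phosphate ranged from 40 μM to 10 mM in HEPES/KCl/Mg(OAc)2 buffer. kobs came from decay fits to per-tile medians, and kcat and KM from weighted Michaelis–Menten fits.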

glucosamine-6-phosphate [2] = variants of: B1; experiment: self-cleavage kobs at 160 uM GlcN6P; higher = faster cleavage; RNA array
Summary of the method: as §1

glucosamine-6-phosphate [3] = variants of: B1; experiment: self-cleavage kobs at 640 uM GlcN6P; higher = faster cleavage; RNA array
Summary of the method: as §1

glucosamine-6-phosphate [4] = variants of: B1; experiment: self-cleavage kobs at 2500 uM GlcN6P; higher = faster cleavage; RNA array
Summary of the method: as §1

glucosamine-6-phosphate [5] = variants of: B1; experiment: self-cleavage kobs at 10000 uM GlcN6P; higher = faster cleavage; RNA array
Summary of the method: as §1

| Variant | self-cleavage kobs at 40 uM GlcN6P (glucosamine-6-phosphate [1]) [s⁻¹] | self-cleavage kobs at 160 uM GlcN6P (glucosamine-6-phosphate [2]) [s⁻¹] | self-cleavage kobs at 640 uM GlcN6P (glucosamine-6-phosphate [3]) [s⁻¹] | self-cleavage kobs at 2500 uM GlcN6P (glucosamine-6-phosphate [4]) [s⁻¹] | self-cleavage kobs at 10000 uM GlcN6P (glucosamine-6-phosphate [5]) [s⁻¹] |
| --- | --- | --- | --- | --- | --- |
| C11U G44U | < 1e-05 | < 1e-05 | < 1e-05 | < 1e-05 |  |
| A36G G60U | < 1e-05 | < 1e-05 | < 1e-05 | < 1e-05 | < 1e-05 |
| A6G A42U C58U | < 1e-05 |  |  |  |  |
| A33U U65C | < 1e-05 | < 1e-05 | < 1e-05 |  |  |
| G13A A15G C16G G32U A42C U46A U57A C68U | < 1e-05 |  |  |  |  |
| A12C A53U G62U | < 1e-05 |  |  |  | < 1e-05 |
| G32C A42C C68A | < 1e-05 |  | < 1e-05 |  |  |
| G44A G59U C71A | < 1e-05 | < 1e-05 | < 1e-05 | < 1e-05 | < 1e-05 |
| A15C G35U | < 1e-05 | < 1e-05 | < 1e-05 | < 1e-05 |  |
| A36U G41A | < 1e-05 | < 1e-05 | < 1e-05 | < 1e-05 | < 1e-05 |
| U31G A42C | < 1e-05 | < 1e-05 |  | < 1e-05 |  |
| G41U U49C C61G | < 1e-05 |  |  |  | < 1e-05 |
| C16A A48G | < 1e-05 |  | < 1e-05 | < 1e-05 | < 1e-05 |
| G7C A15C | < 1e-05 | < 1e-05 | < 1e-05 | < 1e-05 | < 1e-05 |
| G29U G38U U55G | < 1e-05 |  |  | < 1e-05 | < 1e-05 |
| G35C A39C | < 1e-05 | < 1e-05 | < 1e-05 | < 1e-05 | < 1e-05 |
| U30G U49C A64C | < 1e-05 | < 1e-05 |  |  | < 1e-05 |
| C11A A15G C58G C68A | 8.59e-05 ± 2.2e-05 |  |  |  | 0.000145 ± 2.6e-05 |
| A36U G43A U56A | < 1e-05 |  | < 1e-05 |  | < 1e-05 |
| A36C G59A C67A | < 1e-05 |  |  |  | < 1e-05 |
| G9A A14C | < 1e-05 | < 1e-05 |  | < 1e-05 |  |
| A52C C61U | < 1e-05 |  | < 1e-05 | < 1e-05 | < 1e-05 |
| U54C C68U | 0.000265 ± 3.7e-05 | 0.000635 ± 8.4e-05 | 0.000868 ± 0.00023 | 0.00216 ± 0.0005 | 0.0106 ± 0.0023 |

| Variant | self-cleavage kobs at 40 uM GlcN6P (glucosamine-6-phosphate [1]) [s⁻¹] | self-cleavage kobs at 160 uM GlcN6P (glucosamine-6-phosphate [2]) [s⁻¹] | self-cleavage kobs at 640 uM GlcN6P (glucosamine-6-phosphate [3]) [s⁻¹] | self-cleavage kobs at 2500 uM GlcN6P (glucosamine-6-phosphate [4]) [s⁻¹] | self-cleavage kobs at 10000 uM GlcN6P (glucosamine-6-phosphate [5]) [s⁻¹] |
| --- | --- | --- | --- | --- | --- |
| G7U C11U A33U G40C | < 1e-05 |  |  | < 1e-05 | < 1e-05 |
| U45G U54C G63C A64U U65G | < 1e-05 |  |  |  |  |
| G60U C61U | < 1e-05 |  | < 1e-05 |  | < 1e-05 |
| A42C U45A | < 1e-05 |  | < 1e-05 | < 1e-05 |  |
| A33G A42G U46G U56A | < 1e-05 |  | < 1e-05 | < 1e-05 | < 1e-05 |
| A6C A36G | < 1e-05 | < 1e-05 | < 1e-05 | < 1e-05 | < 1e-05 |
| A6C A36U | < 1e-05 |  |  | < 1e-05 | < 1e-05 |
| C34G G37C C61U U65A | < 1e-05 |  |  |  | < 1e-05 |
| U30G U45A A64C | < 1e-05 |  |  |  | 7e-05 ± 1.7e-05 |
| A36U G43C | < 1e-05 | < 1e-05 | < 1e-05 | < 1e-05 |  |
| C8U C11U U45C G63C | < 1e-05 |  |  |  |  |
| C10A U45G G63U | < 1e-05 |  |  |  | < 1e-05 |
| A52G A64U | < 1e-05 | < 1e-05 |  |  |  |
| A33G C34G G35U G38U | < 1e-05 |  |  |  | < 1e-05 |
| G60A U65C | < 1e-05 | < 1e-05 |  | < 1e-05 | < 1e-05 |
| G7A G59A | < 1e-05 | < 1e-05 | < 1e-05 | < 1e-05 | < 1e-05 |
| A42U G44U | < 1e-05 | < 1e-05 | < 1e-05 | < 1e-05 |  |
| A14C U46A G59A C68G | < 1e-05 |  |  |  |  |
| A36C A53G | < 1e-05 |  |  |  | < 1e-05 |
| A15U G29U U54G | 7.25e-05 ± 1.8e-05 |  |  |  | 0.00243 ± 0.00048 |
| G13A G44A U65A | < 1e-05 |  |  |  |  |
| G7U U45C U56A | < 1e-05 |  | < 1e-05 | < 1e-05 |  |
| C34A U54A G62U G63U | < 1e-05 |  | < 1e-05 |  | < 1e-05 |

| Variant | self-cleavage kobs at 40 uM GlcN6P (glucosamine-6-phosphate [1]) [s⁻¹] | self-cleavage kobs at 160 uM GlcN6P (glucosamine-6-phosphate [2]) [s⁻¹] | self-cleavage kobs at 640 uM GlcN6P (glucosamine-6-phosphate [3]) [s⁻¹] | self-cleavage kobs at 2500 uM GlcN6P (glucosamine-6-phosphate [4]) [s⁻¹] | self-cleavage kobs at 10000 uM GlcN6P (glucosamine-6-phosphate [5]) [s⁻¹] |
| --- | --- | --- | --- | --- | --- |
| U54A U55G | 0.00074 ± 7.7e-05 | 0.00127 ± 0.00022 | 0.00651 ± 0.0008 | 0.0121 ± 0.0021 | 0.0328 ± 0.011 |
| C16A C71U | 5.08e-05 ± 8.3e-06 | 0.000159 ± 3.6e-05 | 0.000293 ± 3.5e-05 | 0.000355 ± 5.3e-05 | 0.00133 ± 0.00014 |
| G37A G59U C61U | < 1e-05 |  |  |  | < 1e-05 |
| C10A A39U U69C | < 1e-05 |  |  |  | < 1e-05 |
| C8G A48G C58G | < 1e-05 | < 1e-05 | < 1e-05 |  | < 1e-05 |
| C8A A15U G38A G41C A53G | < 1e-05 |  |  |  |  |
| U46G A53U C70G | 5.33e-05 ± 2.4e-05 |  |  | 0.000254 ± 7.7e-05 | 0.000165 ± 4e-05 |
| G9U G44C A64C | < 1e-05 |  |  |  | < 1e-05 |
| A12U A15U A52C | < 1e-05 |  |  |  | < 1e-05 |
| G41U U46A U49C C71G | < 1e-05 |  |  |  |  |
| C11G G38A | < 1e-05 |  | < 1e-05 | < 1e-05 |  |
| C8U C10A G40C C67A | < 1e-05 |  |  |  |  |
| G32C G38C G60C C67G | < 1e-05 |  | < 1e-05 |  | < 1e-05 |
| G44A U56C | < 1e-05 | < 1e-05 |  |  | < 1e-05 |
| A48C G59A | < 1e-05 | < 1e-05 | < 1e-05 | < 1e-05 | < 1e-05 |
| U56A C61U | < 1e-05 | < 1e-05 |  |  |  |
| C10U G29C C61A | < 1e-05 |  |  |  |  |
| G9A C10G | < 1e-05 | < 1e-05 |  | < 1e-05 |  |
| A12G G41C C61U | < 1e-05 |  |  | < 1e-05 | < 1e-05 |
| C16G G29U G32A | 7.82e-05 ± 1.9e-05 |  |  |  | 0.0042 ± 0.0009 |
| G7U G40A | < 1e-05 |  |  |  |  |
| A6G G32A G37C U46G C58A C67G | 0.000232 ± 6.3e-05 |  | 0.000494 ± 0.00014 |  | 0.000132 ± 3.3e-05 |
| G60U U65G | < 1e-05 |  | < 1e-05 | < 1e-05 | < 1e-05 |

| Variant | self-cleavage kobs at 40 uM GlcN6P (glucosamine-6-phosphate [1]) [s⁻¹] | self-cleavage kobs at 160 uM GlcN6P (glucosamine-6-phosphate [2]) [s⁻¹] | self-cleavage kobs at 640 uM GlcN6P (glucosamine-6-phosphate [3]) [s⁻¹] | self-cleavage kobs at 2500 uM GlcN6P (glucosamine-6-phosphate [4]) [s⁻¹] | self-cleavage kobs at 10000 uM GlcN6P (glucosamine-6-phosphate [5]) [s⁻¹] |
| --- | --- | --- | --- | --- | --- |
| U30C A33C U47G | < 1e-05 |  |  |  | < 1e-05 |
| G37U G38A | < 1e-05 |  |  |  | < 1e-05 |
| G51A A64U | < 1e-05 | < 1e-05 |  |  |  |
| A36G G43A U54G | < 1e-05 |  | < 1e-05 | < 1e-05 | < 1e-05 |
| G7C A14G G38C U54G | < 1e-05 |  |  |  |  |
| A6U G29U C50U G66C | < 1e-05 |  |  |  | < 1e-05 |
| C11U A14G A15G | 0.000235 ± 5.3e-05 |  |  |  | 0.0112 ± 0.0025 |
| G9A G13U A15G G37C A39C A53U C67G C68A | 0.000469 ± 0.00015 |  | 0.000121 ± 4.4e-05 |  | 0.000282 ± 7.8e-05 |
| C16U A53U | 0.00056 ± 5.9e-05 | 0.000815 ± 0.00015 | 0.00552 ± 0.00076 | 0.00594 ± 0.0012 | 0.0301 ± 0.0055 |
| U45A A52U | < 1e-05 |  | 0.000476 ± 0.00013 |  | 0.001 ± 0.00019 |
| C8G G29U C71G | < 1e-05 |  |  |  |  |
| C8A G43C C67U | < 1e-05 |  | < 1e-05 | < 1e-05 |  |
| C34G A53C | < 1e-05 | < 1e-05 | < 1e-05 | < 1e-05 | < 1e-05 |
| A12G A36U A42U G51U A53C | < 1e-05 |  |  |  |  |
| A6U G40U U56A | < 1e-05 |  | < 1e-05 |  |  |
| A36U U55G | < 1e-05 |  |  |  |  |
| A6C G51C | < 1e-05 | < 1e-05 | < 1e-05 | < 1e-05 | < 1e-05 |
| G7U G9C A42G A52U | < 1e-05 |  | < 1e-05 |  |  |
| G9C C34G | < 1e-05 | < 1e-05 | < 1e-05 | < 1e-05 | < 1e-05 |
| G37A A52C C61A | < 1e-05 |  |  |  | < 1e-05 |
| C10A C11U | < 1e-05 | < 1e-05 |  | < 1e-05 | < 1e-05 |
| U54G U55A | 0.00109 ± 0.00018 |  |  |  | 0.0495 ± 0.015 |
